B1: PR003562 (bispecific antibody)
light: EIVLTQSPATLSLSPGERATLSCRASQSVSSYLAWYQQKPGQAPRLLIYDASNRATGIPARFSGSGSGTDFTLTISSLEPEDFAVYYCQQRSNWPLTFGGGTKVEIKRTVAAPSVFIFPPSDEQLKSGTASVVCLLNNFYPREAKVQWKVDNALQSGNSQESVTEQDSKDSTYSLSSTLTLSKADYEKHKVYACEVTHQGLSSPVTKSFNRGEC
heavy: EVQLLESGGGLVQPGGSLRLSCAASGFTFSSFVMSWVRQAPGKGLEWVSTISGSGRSTYYADSVKGRFTISRDNSKNTLHLQMNSLRAEDTAVYYCAKDAAAAGTKFDYWGQGTLVTVSSASTKGPSVFPLAPSSKSTSGGTAALGCLVKDYFPEPVTVSWNSGALTSGVHTFPAVLQSSGLYSLSSVVTVPSSSLGTQTYICNVNHKPSNTKVDKKVEPKSCDKTHTCPPCPAPEAAGGPSVFLFPPKPKDTLMISRTPEVTCVVVDVSHEDPEVKFNWYVDGVEVHNAKTKPREEQYNSTYRVVSVLTVLHQDWLNGKEYKCKVSNKALGAPIEKTISKAKGQPREPQVYTLPPSREEMTKNQVSLTCLVKGFYPSDIAVEWESNGQPENNYKTTPPVLDSDGSFFLYSKLTVDKSRWQQGNVFSCSVMHEALHNHYTQKSLSLSPGEPKSSDKTHTPPPPPRTEVQLLESGGGLVQLGGSLRLSCAASGFTFSRYAMTWVRQAPEKGLEWVSSISGSGDDTYYGDSVKGRFTISRDNSQNTVYLQMNSLRAEDTAVYFCAKEKAGTTGDYYYNVDVWGQGTTVTVSS
B2: PR003563 (bispecific antibody)
light: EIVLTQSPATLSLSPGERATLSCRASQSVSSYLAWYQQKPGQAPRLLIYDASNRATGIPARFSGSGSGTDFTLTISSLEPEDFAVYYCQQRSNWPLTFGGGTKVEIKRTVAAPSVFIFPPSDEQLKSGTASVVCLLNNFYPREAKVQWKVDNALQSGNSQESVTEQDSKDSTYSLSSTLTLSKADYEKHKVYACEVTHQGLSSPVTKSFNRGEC
heavy: EVQLLESGGGLVQPGGSLRLSCAASGFTFSSFVMSWVRQAPGKGLEWVSTISGSGRSTYYADSVKGRFTISRDNSKNTLHLQMNSLRAEDTAVYYCAKDAAAAGTKFDYWGQGTLVTVSSASTKGPSVFPLAPSSKSTSGGTAALGCLVKDYFPEPVTVSWNSGALTSGVHTFPAVLQSSGLYSLSSVVTVPSSSLGTQTYICNVNHKPSNTKVDKKVEPKSCDKTHTCPPCPAPEAAGGPSVFLFPPKPKDTLMISRTPEVTCVVVDVSHEDPEVKFNWYVDGVEVHNAKTKPREEQYNSTYRVVSVLTVLHQDWLNGKEYKCKVSNKALGAPIEKTISKAKGQPREPQVYTLPPSREEMTKNQVSLTCLVKGFYPSDIAVEWESNGQPENNYKTTPPVLDSDGSFFLYSKLTVDKSRWQQGNVFSCSVMHEALHNHYTQKSLSLSPGEPKSSDKTHTPPPPPRTEVQLVESGGGVVQPGGSLRLSCAASGFTFSNYAMTWVRQAPEKGLEWVSSISGSGVSTYYADSVKGRFTISRDNSKNTLYLQMTRLTAEDTAVYFCAKEGSSETDDHYYNVDVWGQGTTVTVSS
B3: PR003564 (bispecific antibody)
light: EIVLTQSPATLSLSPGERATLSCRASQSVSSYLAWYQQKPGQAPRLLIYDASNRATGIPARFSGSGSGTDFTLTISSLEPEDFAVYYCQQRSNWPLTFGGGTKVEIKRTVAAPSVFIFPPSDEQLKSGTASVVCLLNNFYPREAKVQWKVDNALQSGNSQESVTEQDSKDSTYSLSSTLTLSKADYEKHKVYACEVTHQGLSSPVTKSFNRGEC
heavy: EVQLLESGGGLVQPGGSLRLSCAASGFTFSSFVMSWVRQAPGKGLEWVSTISGSGRSTYYADSVKGRFTISRDNSKNTLHLQMNSLRAEDTAVYYCAKDAAAAGTKFDYWGQGTLVTVSSASTKGPSVFPLAPSSKSTSGGTAALGCLVKDYFPEPVTVSWNSGALTSGVHTFPAVLQSSGLYSLSSVVTVPSSSLGTQTYICNVNHKPSNTKVDKKVEPKSCDKTHTCPPCPAPEAAGGPSVFLFPPKPKDTLMISRTPEVTCVVVDVSHEDPEVKFNWYVDGVEVHNAKTKPREEQYNSTYRVVSVLTVLHQDWLNGKEYKCKVSNKALGAPIEKTISKAKGQPREPQVYTLPPSREEMTKNQVSLTCLVKGFYPSDIAVEWESNGQPENNYKTTPPVLDSDGSFFLYSKLTVDKSRWQQGNVFSCSVMHEALHNHYTQKSLSLSPGEPKSSDKTHTPPPPPRTEVQLLESGGGLVQPGGSLRLSCAASGFIFSNFAMTWVRQPPEKGLKWVSSINGSGFNTYYTDSVKGRFTISRDNSRNTLYLQMNRLTAEDTAVYFCAKEGSSETDDHYYNVDVWGQGTTVTVSS
B4: PR003551 (bispecific antibody)
light: DIQMTQSPSTLSASVGDRVTVTCRASQSIYIWLAWYQQKPGKAPNLLIYKASSLETGVPSRFSGSGSGTEFTLTISSLQPDDFATYYCQQYYGSSRTFGQGTKVEIKRTVAAPSVFIFPPSDEQLKSGTASVVCLLNNFYPREAKVQWKVDNALQSGNSQESVTEQDSKDSTYSLSSTLTLSKADYEKHKVYACEVTHQGLSSPVTKSFNRGEC
heavy: EVQLVESGGGLVQPGGSLRLSCAASGFTFSSYWMSWVRQAPGKGLEWVANIKQEGSEKYYVDSVKGRFTISRDNAKNSLYLQMNSLRAEDTAVYYCARDRAVAGAFDIWGQGTMVTVSSASTKGPSVFPLAPSSKSTSGGTAALGCLVKDYFPEPVTVSWNSGALTSGVHTFPAVLQSSGLYSLSSVVTVPSSSLGTQTYICNVNHKPSNTKVDKKVEPKSCDKTHTCPPCPAPEAAGGPSVFLFPPKPKDTLMISRTPEVTCVVVDVSHEDPEVKFNWYVDGVEVHNAKTKPREEQYNSTYRVVSVLTVLHQDWLNGKEYKCKVSNKALGAPIEKTISKAKGQPREPQVYTLPPSREEMTKNQVSLTCLVKGFYPSDIAVEWESNGQPENNYKTTPPVLDSDGSFFLYSKLTVDKSRWQQGNVFSCSVMHEALHNHYTQKSLSLSPGEPKSSDKTHTPPPPPRTEVQLLESGGGLVQPGGSLRLSCAASGFIFSNFAMTWVRQPPEKGLKWVSSINGSGFNTYYTDSVKGRFTISRDNSRNTLYLQMNRLTAEDTAVYFCAKEGSSETDDHYYNVDVWGQGTTVTVSS
B5: PR007163 (bispecific antibody)
light: DIQMTQSPSTLSASVGDRVTVTCRASQSIYIWLAWYQQKPGKAPNLLIYKASSLETGVPSRFSGSGSGTEFTLTISSLQPDDFATYYCQQYYGSSRTFGQGTKVEIKRTVAAPSVFIFPPSDEQLKSGTASVVCLLNNFYPREAKVQWKVDNALQSGNSQESVTEQDSKDSTYSLSSTLTLSKADYEKHKVYACEVTHQGLSSPVTKSFNRGEC
heavy: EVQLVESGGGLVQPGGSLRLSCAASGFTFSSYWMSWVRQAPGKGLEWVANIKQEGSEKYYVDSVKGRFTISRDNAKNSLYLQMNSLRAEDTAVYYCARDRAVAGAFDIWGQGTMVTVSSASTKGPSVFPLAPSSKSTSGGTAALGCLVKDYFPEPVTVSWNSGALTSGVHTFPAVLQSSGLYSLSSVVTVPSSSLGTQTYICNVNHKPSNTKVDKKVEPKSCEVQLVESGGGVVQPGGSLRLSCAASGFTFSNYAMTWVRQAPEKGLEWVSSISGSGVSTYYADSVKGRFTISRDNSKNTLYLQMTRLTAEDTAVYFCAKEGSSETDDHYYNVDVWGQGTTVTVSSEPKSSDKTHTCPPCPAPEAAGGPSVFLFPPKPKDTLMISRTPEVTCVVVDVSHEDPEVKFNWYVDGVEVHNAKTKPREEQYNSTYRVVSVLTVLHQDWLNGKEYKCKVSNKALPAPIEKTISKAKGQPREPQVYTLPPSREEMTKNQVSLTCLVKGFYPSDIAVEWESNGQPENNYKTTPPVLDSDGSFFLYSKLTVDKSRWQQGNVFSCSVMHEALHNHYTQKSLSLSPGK

Target: T1, human 4-1BB (human, UniProt Q07011 24-255)
Experiment: FACS

Q: How did the EC50 turn out when B1 was run?
A: 1.87 nM

Q: B2 was tested. Which EC50 did it give?
A: 1.65 nM

Q: Which EC50 does the source give for B3 here?
A: 2.78 nM

Target: human PD-L1 (human, UniProt Q9NZQ7 19-290)
Sequence (Q9NZQ7 19-290): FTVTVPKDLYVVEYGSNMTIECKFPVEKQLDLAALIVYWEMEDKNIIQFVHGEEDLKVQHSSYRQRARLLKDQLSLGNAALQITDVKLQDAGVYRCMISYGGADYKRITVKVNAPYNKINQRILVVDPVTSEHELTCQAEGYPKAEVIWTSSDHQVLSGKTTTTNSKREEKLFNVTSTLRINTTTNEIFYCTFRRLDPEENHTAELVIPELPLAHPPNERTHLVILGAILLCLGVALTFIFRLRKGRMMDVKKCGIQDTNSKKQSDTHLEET
Experiment: FACS

Q: B4 was tested. Which EC50 did it give?
A: 1.29 nM

Q: Which EC50 does the source give for B5 here?
A: 2.26 nM

Target: T1, human 4-1BB
Experiment: FACS
Remark: another data set of the same source

Q: Which EC50 does the source give for B4 here?
A: 3.15 nM

Source: patent US20230303698A1 (published 2023)
